Measured values taken from patent US10548981B2, “Silk-based drug delivery system” (TRUSTEES OF TUFTS COLLEGE, priority 2004, dated 2020).
Entries after “also recorded” stand apart in the source; their conditions may differ.

What was measured:
[1] = Release of HRP and Lysozyme from silk films, analyzed by biological potency tests (FIG. 5); assay type: physicochemical; conditions: for release / released protein-drug activity: methanol treated films
[2] = Protein activity after water vapor treatment of drug loaded films; assay type: physicochemical; conditions: water vapor treatment of drug loaded films at 25° C. over a saturated Na2SO4 solution for 24 hours
Procedure: Conclusion: Drug release from silk films was a function of the drugs molecular weight and film treatment with methanol. […] This decrease of activity was correlated to methanol sensitivity of Lys (and to a lesser extent for HRP). Alternatively, crystallinity can be induced by water vapor treatment (data not shown) of drug loaded films at 25° C. over a saturated Na2SO4 solution for 24 hours.

[3] = loaded films exposed to methanol

Row | Substance | release / released protein-drug activity ([1]; listed as Lys) | protein activity [2] | continuous release until [1, 3] | initial burst [1, 3] | start of release [1, 3] | release / released protein-drug activity [1] | initial burst, of the total loading ([1]; native silk films) | lag phase ([1]; native silk films)
1 | Lysozyme | did not release substantial amounts over time; also recorded: substantially less protein-drug activity | No loss of protein activity |  |  |  |  |  | 
2 | horseradish peroxidase [HRP] |  | No loss of protein activity | 23 days | No initial burst | 5 days | substantially less protein-drug activity | 5% | two
